In patent publication US20230151068A1:

How the values were obtained:
[1] = biological target: biotinylated His-Avi-TEAD (194-411) (UniProt P28347); assay: SPR, single cycle kinetics, biotinylated TEAD captured on the chip, peptide injected at 0.044, 0.133, 0.4, 1.2, 3.6 nM
[2] = biological target: biotinylated His-Avi-TEAD (194-411) (UniProt P28347); assay: SPR (Biacore T100, 25 C), captured biotinylated TEAD, peptide as analyte, single cycle kinetics
[3] = biological target: biotinylated His-Avi-TEAD (194-411) (UniProt P28347); assay: SSM screen, enrichment after two rounds of sorting
[4] = biological target: biotinylated His-Avi-TEAD (194-411) (UniProt P28347); assay: SPR (Biacore T100, 25 C), captured biotinylated TEAD, peptide as analyte, kinetics 1:1 binding
[5] = biological target: biotinylated His-Avi-TEAD (194-411) (UniProt P28347); assay: SPR (Biacore T100, 25 C), captured biotinylated TEAD, peptide as analyte, steady-state
[6] = biological target: biotinylated His-Avi-TEAD (194-411) (UniProt P28347); assay: SPR, steady-state response against peptide concentration (M, log axis) with fitted curve

| Binder | enrichment score [3] | also measured |
| --- | --- | --- |
| GSPDEYIERAKECCKKQDIQCCLRIFDESGDPNVMLICLFCW (designed binder) [peptide of SEQ ID NO: 10] |  | Kd [1]: 0.372 nM; Kd [2]: 0.372 nM; koff [2]: 0.00767 s⁻¹; kon [2]: 2.06e+07 M⁻¹ s⁻¹ |
| GSKDEYIERAKECCKKGDIQCCLRYFEESGDPNVMLICLFCP (designed binder) [P01K variant of SEQ ID NO: 1] | -0.29 |  |
| GSEDEYIERAKECCKKGDIQCCLRYFEESGDPNVMLICLFCP (designed binder) [P01E variant of SEQ ID NO: 1] | 1.12 |  |
| GSPDEYIEHAKECCKKGDIQCCLRYFEESGDPNVMLICLFCP (designed binder) [R07H variant of SEQ ID NO: 1] | -0.32 |  |
| GSPDEYIEGAKECCKKGDIQCCLRYFEESGDPNVMLICLFCP (designed binder) [R07G variant of SEQ ID NO: 1] | 1.31 |  |
| GSPDHYIERAKECCKKGDIQCCLRYFEESGDPNVMLICLFCP (designed binder) [E03H variant of SEQ ID NO: 1] | -0.31 |  |
| GSGDEYIERAKECCKKGDIQCCLRYFEESGDPNVMLICLFCP (designed binder) [P01G variant of SEQ ID NO: 1] | 1.7 |  |
| GSPDEGIERAKECCKKGDIQCCLRYFEESGDPNVMLICLFCP (designed binder) [Y04G variant of SEQ ID NO: 1] | -2.21 |  |
| GSPDDYIERAKECCKKGDIQCCLRYFEESGDPNVMLICLFCP (designed binder) [E03D variant of SEQ ID NO: 1] | 0.8 |  |
| GSPDEKIERAKECCKKGDIQCCLRYFEESGDPNVMLICLFCP (designed binder) [Y04K variant of SEQ ID NO: 1] | -1.58 |  |
| GSPDEYIERADECCKKGDIQCCLRYFEESGDPNVMLICLFCP (designed binder) [K09D variant of SEQ ID NO: 1] | -0.58 |  |
| GSPHEYIERAKECCKKGDIQCCLRYFEESGDPNVMLICLFCP (designed binder) [D02H variant of SEQ ID NO: 1] | -1.05 |  |
| GSPDEHIERAKECCKKGDIQCCLRYFEESGDPNVMLICLFCP (designed binder) [Y04H variant of SEQ ID NO: 1] | -1.9 |  |
| GSPDEYIEREKECCKKGDIQCCLRYFEESGDPNVMLICLFCP (designed binder) [A08E variant of SEQ ID NO: 1] | -2.66 |  |
| GSPEEYIERAKECCKKGDIQCCLRYFEESGDPNVMLICLFCP (designed binder) [D02E variant of SEQ ID NO: 1] | 1.16 |  |
| GSPDEYIERAKECCKKQDIQCCLRIFDESKDPNVMLICLFCP (designed binder) [peptide of SEQ ID NO: 11] |  | koff [4]: 0.117 s⁻¹; kon [4]: 3.1e+07 M⁻¹ s⁻¹; Kd [5]: 6.3 nM; EC50 (read off the curve) [6]: 6 nM |
| GSPKEYIERAKECCKKGDIQCCLRYFEESGDPNVMLICLFCP (designed binder) [D02K variant of SEQ ID NO: 1] | -1.07 |  |
| GSPDEYGERAKECCKKGDIQCCLRYFEESGDPNVMLICLFCP (designed binder) [I05G variant of SEQ ID NO: 1] | -3.97 |  |
| GSPDEYIERDKECCKKGDIQCCLRYFEESGDPNVMLICLFCP (designed binder) [A08D variant of SEQ ID NO: 1] | -4.17 |  |

| Binder | enrichment score [3] | also measured |
| --- | --- | --- |
| GSPGEYIERAKECCKKGDIQCCLRYFEESGDPNVMLICLFCP (designed binder) [D02G variant of SEQ ID NO: 1] | -0.32 |  |
| GSDDEYIERAKECCKKGDIQCCLRYFEESGDPNVMLICLFCP (designed binder) [P01D variant of SEQ ID NO: 1] | -0.65 |  |
| GSPDEYIEDAKECCKKGDIQCCLRYFEESGDPNVMLICLFCP (designed binder) [R07D variant of SEQ ID NO: 1] | -2.25 |  |
| GSPDEYHERAKECCKKGDIQCCLRYFEESGDPNVMLICLFCP (designed binder) [I05H variant of SEQ ID NO: 1] | -2.99 |  |
| GSPDEEIERAKECCKKGDIQCCLRYFEESGDPNVMLICLFCP (designed binder) [Y04E variant of SEQ ID NO: 1] | -6.52 |  |
| GSPDKYIERAKECCKKGDIQCCLRYFEESGDPNVMLICLFCP (designed binder) [E03K variant of SEQ ID NO: 1] | -0.5 |  |
| GSPDEYIGRAKECCKKGDIQCCLRYFEESGDPNVMLICLFCP (designed binder) [E06G variant of SEQ ID NO: 1] | -1.15 |  |
| GSPDEYDERAKECCKKGDIQCCLRYFEESGDPNVMLICLFCP (designed binder) [I05D variant of SEQ ID NO: 1] | -3.47 |  |
| GSPDEYIHRAKECCKKGDIQCCLRYFEESGDPNVMLICLFCP (designed binder) [E06H variant of SEQ ID NO: 1] | -1.57 |  |
| GSPDEDIERAKECCKKGDIQCCLRYFEESGDPNVMLICLFCP (designed binder) [Y04D variant of SEQ ID NO: 1] | -1.79 |  |
| GSPDEYIERGKECCKKGDIQCCLRYFEESGDPNVMLICLFCP (designed binder) [A08G variant of SEQ ID NO: 1] | -4.11 |  |
| GSPDGYIERAKECCKKGDIQCCLRYFEESGDPNVMLICLFCP (designed binder) [E03G variant of SEQ ID NO: 1] | -0.62 |  |
| GSPDEYIERHKECCKKGDIQCCLRYFEESGDPNVMLICLFCP (designed binder) [A08H variant of SEQ ID NO: 1] | -7.27 |  |
| GSPDEYEERAKECCKKGDIQCCLRYFEESGDPNVMLICLFCP (designed binder) [I05E variant of SEQ ID NO: 1] | -1.23 |  |
| GSPDEYIEEAKECCKKGDIQCCLRYFEESGDPNVMLICLFCP (designed binder) [R07E variant of SEQ ID NO: 1] | -0.16 |  |
| GSPDEYIDRAKECCKKGDIQCCLRYFEESGDPNVMLICLFCP (designed binder) [E06D variant of SEQ ID NO: 1] | -0.6 |  |
| GSHDEYIERAKECCKKGDIQCCLRYFEESGDPNVMLICLFCP (designed binder) [P01H variant of SEQ ID NO: 1] | -0.88 |  |
| GSPDEYIERARRCCRRGDIQCCLRYFEESGDPNVMLICLFCP (designed binder) [peptide of SEQ ID NO: 8] |  | Kd [5]: 39 nM; EC50 (read off the curve) [6]: 40 nM |

Further lines, with some results ahead:

| enrichment score [3] | Binder | also measured |
| --- | --- | --- |
| -0.68 | GSPDEYIERAKECCKYGDIQCCLRYFEESGDPNVMLICLFCP (designed binder) [K14Y variant of SEQ ID NO: 1] |  |
| -1.97 | GSPDEYIERAKHCCKKGDIQCCLRYFEESGDPNVMLICLFCP (designed binder) [E10H variant of SEQ ID NO: 1] |  |
| -1.14 | GSPDEYIERAKECCKKYDIQCCLRYFEESGDPNVMLICLFCP (designed binder) [G15Y variant of SEQ ID NO: 1] |  |
| -0.48 | GSPDEYIERAGECCKKGDIQCCLRYFEESGDPNVMLICLFCP (designed binder) [K09G variant of SEQ ID NO: 1] |  |
| 3.95 | GSPDEYIERAEECCKKGDIQCCLRYFEESGDPNVMLICLFCP (designed binder) [K09E variant of SEQ ID NO: 1] |  |
| -8.35 | GSPDEYIERAKECCKKGDIYCCLRYFEESGDPNVMLICLFCP (designed binder) [Q18Y variant of SEQ ID NO: 1] |  |
| -1.29 | GSPDEYIERAKECCYKGDIQCCLRYFEESGDPNVMLICLFCP (designed binder) [K13Y variant of SEQ ID NO: 1] |  |
| -3.84 | GSPDEYIERAKECCKKGYIQCCLRYFEESGDPNVMLICLFCP (designed binder) [D16Y variant of SEQ ID NO: 1] |  |
| -2.41 | GSPDEYIERAKECCKKGDPQCCLRYFEESGDPNVMLICLFCP (designed binder) [I17P variant of SEQ ID NO: 1] |  |
| -0.44 | GSPDEYIERAKGCCKKGDIQCCLRYFEESGDPNVMLICLFCP (designed binder) [E10G variant of SEQ ID NO: 1] |  |
| -10.4 | GSPDEYIERAKECCPKGDIQCCLRYFEESGDPNVMLICLFCP (designed binder) [K13P variant of SEQ ID NO: 1] |  |
| -9.48 | GSPDEYIERAKECCKKGDYQCCLRYFEESGDPNVMLICLFCP (designed binder) [I17Y variant of SEQ ID NO: 1] |  |
| -1.5 | GSPDEYIERAHECCKKGDIQCCLRYFEESGDPNVMLICLFCP (designed binder) [K09H variant of SEQ ID NO: 1] |  |
| -10.6 | GSPDEYIERAKECCKPGDIQCCLRYFEESGDPNVMLICLFCP (designed binder) [K14P variant of SEQ ID NO: 1] |  |
| 0.69 | GSPDEYIERAKECCKKGDIPCCLRYFEESGDPNVMLICLFCP (designed binder) [Q18P variant of SEQ ID NO: 1] |  |
| -0.89 | GSPDEYIERAKDCCKKGDIQCCLRYFEESGDPNVMLICLFCP (designed binder) [E10D variant of SEQ ID NO: 1] |  |
| -4.62 | GSPDEYIERAKECCKKGPIQCCLRYFEESGDPNVMLICLFCP (designed binder) [D16P variant of SEQ ID NO: 1] |  |
| -1.25 | GSPDEYIERAKECCKKPDIQCCLRYFEESGDPNVMLICLFCP (designed binder) [G15P variant of SEQ ID NO: 1] |  |
